Source: paper PMC6080896 (The Journal of General Physiology, 2018)

Molecular target: cerulean-tagged CaM (Cer-CaMWT) (UniProt P0DP23 1-149)
Assay: FRET or BRET

Kd: ~2.3 µM
B1: Venus-tagged CaV1.1 CI (Ven-CaV1.1 CI) (domain or fragment)
chain: not shown
